{"source": "patent US5910570", "key": {"[1]": {"target": "apomucin (deglycosylated mucin) prepared from bovine submaxillary mucin (bovine)"}, "[2]": {"target": "apomucin (deglycosylated mucin) prepared from bovine submaxillary mucin (bovine)", "remark": "listed apart in the source"}, "[3]": {"target": "serine containing acceptor peptide …"}, "[4]": {"target": "serine containing acceptor peptide …", "remark": "listed apart in the source"}}, "note": "Like-named read-outs stand apart in the source and are kept apart here."}
{"substance": "cloned full-length (membrane bound) bovine GalNAc-transferase expressed in Sf9 cells (enzyme)", "values": [{"measurement": "Total activity (U), cell lysate", "setting": "[1]", "value": 16.2, "unit": "U"}]}
{"substance": "soluble, secreted recombinant bovine GalNAc-transferase (GalNAcTs) expressed in Sf9 cells (enzyme)", "values": [{"measurement": "specific activity", "setting": "[2]", "value": 2160, "unit": "U/mg protein"}, {"measurement": "Km", "setting": "[3]", "value": 3.6, "unit": "mM"}, {"measurement": "Km", "setting": "[4]", "value": 3.5, "unit": "mM"}]}
